The results in this text go back to patent US20060286093A1 (ZymoGenetics, published 2006).

The target of one assay is ztnf4 (human) (UniProt Q9Y275).
The target in the next assay is T1, soluble I125-ztnf4 (human, UniProt Q9Y275 134-285, limits assumed, 125I label).
T1 construct: also called ztnf4 sol
In words: Scatchard analysis of soluble I125-ztnf4 binding to stable BHK transfectants expressing BCMA.

Molecule “BCMA-Ig (from UniProt Q9Y275) (Fc fusion)” had an IC50 (read off the curve), inhibition of ztnf4-driven human B cell proliferation in the assay with ztnf4 (human) of 0.1 µg/mL.

B1: BCMA expressed on cells (receptor)
chain: MLQMAGQCSQNEYFDSLLHACIPCQLRCSSNTPPLTCQRYCNASVTNSVKGTNAILWTCLGLSLIISLAVFVLMFLLRKISSEPLKDEFKNTGSGLLGMANIDLEKSRTGDEIILPRGLEYTVEECTCEDCIKSKPKVDSDHCFPLPAMEEGATILVTTKTNDYCKSLPAALSATEIEKSISAR
notes: also called BCMA-BHK
The term Kd denotes the free concentration of one partner at which half of the binding sites on the other are occupied at equilibrium, for simple one-to-one binding. In the assay with soluble I125-ztnf4, B1 gave a Kd of 1.25 nM.

B2: TACI-Ig soluble receptor (TACI-Fc4) (Fc fusion, part only; not given: Fc4 carrier, part only)
chain, part: MSGLGRSRRGGRSRVDQEERFPQGLWTGVAMRSCPEEQYWDPLLGTCMSCKTICNHQSQRTCAAFCRSLSCRKEQGKFYDHLLRDCISCASICGQHPKQCAYFCENKLRSPVNLPPELRRQRSGEVENNSDNSGRYQGLEHRGSEASPALPGLKLSADQVALVYS
B2 had an IC50 (read off the curve), inhibition of ztnf4-driven human B cell proliferation with ztnf4 (human) of 0.1 µg/mL.
